Data from paper doi:10.1101/2025.08.18.670068, “Computational Design of Soluble CCR8 Analogues with Preserved Antibody Binding” (bioRxiv, 2025).

Molecular target: T1, Wild-type CCR8 used as an assay control (Homo sapiens, UniProt P51685)
T1 construct: C-C chemokine receptor 8 (CCR8), human, wild type; Detergent-solubilised; 0.05% DDM and 0.01% CHS in the SPR running buffer; also called WT-CCR8; wild-type Human CCR8 protein; source: bought: Acro Biosystems (Cat. #CC8-H52D6)
Assay: SPR; Biacore 8K; mAb1 IgG1 captured on Protein A chip (about 400 RU); wild-type CCR8 as analyte; 10 mM HEPES, 150 mM NaCl, 3 mM EDTA, 0.005% Tween-20, pH 7.4, with 0.05% DDM and 0.01% CHS; steady-state affinity fit
Settings: both partners purified

Kd: 190 nM
B1: mAb1 in full length human IgG1 format (antibody, V domains shown)
VH: QSVEESGGRLVTPGTPLTLTCTVSGFSLSNYAMIWVRQAPGEGLEWVGTISLGGYTYYANWAKGRFTISKTSTTVDLKISSPTTEDTATYFCARARWSTDSAIYTYAFDPWGPGTLVTVSS
VL: AYDMTQTPASVEVAVGGTVTIKCQASQSISSYLSWYQQKPGQRPELLIYKASTLASGVSSRFKGSGSGTQFTLTISDLEAADAATYYCQQGYTSSNIDNIFGGGTEVVVK
notes: VH of mAb1; constant region of human IgG1 heavy chain ('full length human IgG1 format'); light chain of mAb1; IgG1; captured on a Protein A chip for SPR; source: CHO cells, purified by one step Protein A chromatography
